Data: PMC3338774, “Crystal Structure of ChrR—A Quinone Reductase with the Capacity to Reduce Chromate” (PLoS ONE, 2012)

T1: ChrR (Escherichia coli, UniProt P0AGE6)
T1 construct: full-length recombinant from E. coli BL21 (DE3), pET28a (His) or pTYB3 (intein), tags removed by thrombin or DTT; untagged WT crystallized; tetramer; residues 4-184 (chain A) and 4-185 (chain B) seen in crystal
T1 sequence (P0AGE6 1-188): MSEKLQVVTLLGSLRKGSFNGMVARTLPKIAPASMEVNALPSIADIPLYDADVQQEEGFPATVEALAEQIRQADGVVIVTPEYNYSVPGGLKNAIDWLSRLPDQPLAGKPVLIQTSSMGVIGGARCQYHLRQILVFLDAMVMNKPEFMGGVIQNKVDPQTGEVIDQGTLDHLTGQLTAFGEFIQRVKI


Legend:
[1] = molecular target: T1, ChrR; assay: X-ray crystallography, […] Å; type: binding; conditions: bound at active site, non-covalent; crystals at PEG8000, NaCl, calcium acetate
[2] = molecular target: the molecule itself; assay: crystal structure; untagged wild type ChrR at 26 mg/mL, sitting drop vapor diffusion, PEG8000, sodium chloride, calcium acetate; 2.2 Å, space group P6(3)22; two molecules (a homo-dimer) in the asymmetric unit, tetramer formed by two symmetry related dimers
[3] = molecular target: the molecule itself; assay: SEC; analytic Superdex 200 10/300 column, 0.5 mL per min; proteins pre-incubated with FMN (1 mM, 2 h); various protein concentrations, including those used for measuring the enzyme activity

Molecule	stoichiometry N [3]	other results
Cc1cc2nc3c(=O)[nH]c(=O)nc-3n(C[C@H](O)[C@H](O)[C@H](O)COP(=O)(O)O)c2cc1C [FMN, flavin mononucleotide]	–	X-ray crystallography, 2.2 Å [1]: FMN is anchored by several hydrogen bonds to a typical strand-loop-helix nucleotide-binding motif
Escherichia coli ChrR enzyme, wild type (enzyme, ChrR, quinone reductase with chromate reductase activity, Escherichia coli; the crystal structure models residues 4-184 (chain A) and 4-185 (chain B); The crystallised protein is called untagged; also called ChrR WT; native ChrR; source: E. coli BL21 (DE3), purified (His-Trap nickel or chitin bead column, tag removed, gel filtration on Superdex 200)) EKLQVVTLLGSLRKGSFNGMVARTLPKIAPASMEVNALPSIADIPLYDADVQQEEGFPATVEALAEQIRQADGVVIVTPEYNYSVPGGLKNAIDWLSRLPDQPLAGKPVLIQTSSMGVIGGARCQYHLRQILVFLDAMVMNKPEFMGGVIQNKVDPQTGEVIDQGTLDHLTGQLTAFGEFIQRVKI	–	stoichiometry N [2]: 4
ChrR42 (Tyr85Asn) (enzyme, Escherichia coli, ChrR, Escherichia coli, with Tyr85Asn; PDB 3SVL is the wild-type parent; source: E. coli BL21 (DE3), pET28a, purified (His-Trap nickel column, tag removed, gel filtration)) EKLQVVTLLGSLRKGSFNGMVARTLPKIAPASMEVNALPSIADIPLYDADVQQEEGFPATVEALAEQIRQADGVVIVTPEYNNSVPGGLKNAIDWLSRLPDQPLAGKPVLIQTSSMGVIGGARCQYHLRQILVFLDAMVMNKPEFMGGVIQNKVDPQTGEVIDQGTLDHLTGQLTAFGEFIQRVKI	4	–
ChrR21 (Tyr128Asn) (enzyme, Escherichia coli, ChrR, Escherichia coli, with Tyr128Asn; PDB 3SVL is the wild-type parent; source: E. coli BL21 (DE3), pET28a, purified (His-Trap nickel column, tag removed, gel filtration)) EKLQVVTLLGSLRKGSFNGMVARTLPKIAPASMEVNALPSIADIPLYDADVQQEEGFPATVEALAEQIRQADGVVIVTPEYNYSVPGGLKNAIDWLSRLPDQPLAGKPVLIQTSSMGVIGGARCQNHLRQILVFLDAMVMNKPEFMGGVIQNKVDPQTGEVIDQGTLDHLTGQLTAFGEFIQRVKI	4	–
ChrR41 (Glu146Thr) (enzyme, Escherichia coli, ChrR, Escherichia coli, with Glu146Thr; PDB 3SVL is the wild-type parent; source: E. coli BL21 (DE3), pET28a, purified (His-Trap nickel column, tag removed, gel filtration)) EKLQVVTLLGSLRKGSFNGMVARTLPKIAPASMEVNALPSIADIPLYDADVQQEEGFPATVEALAEQIRQADGVVIVTPEYNYSVPGGLKNAIDWLSRLPDQPLAGKPVLIQTSSMGVIGGARCQYHLRQILVFLDAMVMNKPTFMGGVIQNKVDPQTGEVIDQGTLDHLTGQLTAFGEFIQRVKI	4	–
ChrR43 (Arg125Met) (enzyme, Escherichia coli, ChrR, Escherichia coli, with Arg125Met; PDB 3SVL is the wild-type parent; source: E. coli BL21 (DE3), pET28a, purified (His-Trap nickel column, tag removed, gel filtration)) EKLQVVTLLGSLRKGSFNGMVARTLPKIAPASMEVNALPSIADIPLYDADVQQEEGFPATVEALAEQIRQADGVVIVTPEYNYSVPGGLKNAIDWLSRLPDQPLAGKPVLIQTSSMGVIGGAMCQYHLRQILVFLDAMVMNKPEFMGGVIQNKVDPQTGEVIDQGTLDHLTGQLTAFGEFIQRVKI	4	–
